How the values were obtained:
Test in all cases: cell_activity; PAM TTTV/TTTN; RNP in HEK293T
Conditions in all cases: tags: NLS, His6
[1] = biological target: T1, ID233 Cas12a
T1 chain: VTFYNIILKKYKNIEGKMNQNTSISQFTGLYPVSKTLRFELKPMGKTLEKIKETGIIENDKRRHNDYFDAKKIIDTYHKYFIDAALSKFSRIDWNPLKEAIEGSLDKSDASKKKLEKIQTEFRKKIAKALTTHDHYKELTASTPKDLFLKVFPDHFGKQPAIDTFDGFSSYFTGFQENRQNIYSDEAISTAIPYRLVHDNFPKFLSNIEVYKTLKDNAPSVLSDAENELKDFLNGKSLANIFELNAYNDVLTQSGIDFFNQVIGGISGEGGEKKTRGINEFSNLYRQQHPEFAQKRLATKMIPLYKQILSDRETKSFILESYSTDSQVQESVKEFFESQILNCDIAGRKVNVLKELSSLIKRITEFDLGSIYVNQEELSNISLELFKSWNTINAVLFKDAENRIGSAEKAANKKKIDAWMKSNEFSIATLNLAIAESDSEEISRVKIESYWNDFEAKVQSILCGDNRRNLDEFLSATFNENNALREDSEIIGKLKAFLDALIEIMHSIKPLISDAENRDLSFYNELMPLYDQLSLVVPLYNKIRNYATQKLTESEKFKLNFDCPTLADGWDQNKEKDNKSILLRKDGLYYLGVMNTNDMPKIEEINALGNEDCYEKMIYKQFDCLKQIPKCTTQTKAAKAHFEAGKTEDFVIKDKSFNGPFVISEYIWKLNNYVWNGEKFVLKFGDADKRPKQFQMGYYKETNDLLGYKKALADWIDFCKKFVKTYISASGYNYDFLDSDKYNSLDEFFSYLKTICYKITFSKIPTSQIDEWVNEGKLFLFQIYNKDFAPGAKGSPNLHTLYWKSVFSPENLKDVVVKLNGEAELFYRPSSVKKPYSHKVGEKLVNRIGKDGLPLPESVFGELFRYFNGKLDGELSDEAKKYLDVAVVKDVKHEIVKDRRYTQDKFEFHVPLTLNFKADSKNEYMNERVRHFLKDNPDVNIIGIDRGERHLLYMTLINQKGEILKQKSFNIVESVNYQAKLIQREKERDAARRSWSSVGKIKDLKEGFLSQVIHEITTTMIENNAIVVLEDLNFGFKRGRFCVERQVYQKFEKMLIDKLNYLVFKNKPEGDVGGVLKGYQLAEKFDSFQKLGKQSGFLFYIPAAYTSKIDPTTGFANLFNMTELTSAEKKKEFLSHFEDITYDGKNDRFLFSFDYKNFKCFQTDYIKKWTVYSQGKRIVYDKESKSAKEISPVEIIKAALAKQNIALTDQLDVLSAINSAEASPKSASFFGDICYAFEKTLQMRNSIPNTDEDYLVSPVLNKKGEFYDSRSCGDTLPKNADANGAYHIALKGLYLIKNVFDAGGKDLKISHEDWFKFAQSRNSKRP
Description: (§1) To confirm the in vivo gene editing activity of the CRISPR enzymes according to Experimental Example 4.1, the following experiments were performed: [0474] 1) CRISPR/Cas12a complexes were assembled according to Experimental Example 1.5 using CRISPR enzymes prepared according to Experimental Example 4.1 and guide RNAs. [0475] 2) The CRISPR/Cas12a complexes assembled in 1) were transfected into HEK293T cells according to Experimental Example 1.8, and gene editing activity was measured.

[2] = biological target: T2, ID236 Cas12a
T2 chain: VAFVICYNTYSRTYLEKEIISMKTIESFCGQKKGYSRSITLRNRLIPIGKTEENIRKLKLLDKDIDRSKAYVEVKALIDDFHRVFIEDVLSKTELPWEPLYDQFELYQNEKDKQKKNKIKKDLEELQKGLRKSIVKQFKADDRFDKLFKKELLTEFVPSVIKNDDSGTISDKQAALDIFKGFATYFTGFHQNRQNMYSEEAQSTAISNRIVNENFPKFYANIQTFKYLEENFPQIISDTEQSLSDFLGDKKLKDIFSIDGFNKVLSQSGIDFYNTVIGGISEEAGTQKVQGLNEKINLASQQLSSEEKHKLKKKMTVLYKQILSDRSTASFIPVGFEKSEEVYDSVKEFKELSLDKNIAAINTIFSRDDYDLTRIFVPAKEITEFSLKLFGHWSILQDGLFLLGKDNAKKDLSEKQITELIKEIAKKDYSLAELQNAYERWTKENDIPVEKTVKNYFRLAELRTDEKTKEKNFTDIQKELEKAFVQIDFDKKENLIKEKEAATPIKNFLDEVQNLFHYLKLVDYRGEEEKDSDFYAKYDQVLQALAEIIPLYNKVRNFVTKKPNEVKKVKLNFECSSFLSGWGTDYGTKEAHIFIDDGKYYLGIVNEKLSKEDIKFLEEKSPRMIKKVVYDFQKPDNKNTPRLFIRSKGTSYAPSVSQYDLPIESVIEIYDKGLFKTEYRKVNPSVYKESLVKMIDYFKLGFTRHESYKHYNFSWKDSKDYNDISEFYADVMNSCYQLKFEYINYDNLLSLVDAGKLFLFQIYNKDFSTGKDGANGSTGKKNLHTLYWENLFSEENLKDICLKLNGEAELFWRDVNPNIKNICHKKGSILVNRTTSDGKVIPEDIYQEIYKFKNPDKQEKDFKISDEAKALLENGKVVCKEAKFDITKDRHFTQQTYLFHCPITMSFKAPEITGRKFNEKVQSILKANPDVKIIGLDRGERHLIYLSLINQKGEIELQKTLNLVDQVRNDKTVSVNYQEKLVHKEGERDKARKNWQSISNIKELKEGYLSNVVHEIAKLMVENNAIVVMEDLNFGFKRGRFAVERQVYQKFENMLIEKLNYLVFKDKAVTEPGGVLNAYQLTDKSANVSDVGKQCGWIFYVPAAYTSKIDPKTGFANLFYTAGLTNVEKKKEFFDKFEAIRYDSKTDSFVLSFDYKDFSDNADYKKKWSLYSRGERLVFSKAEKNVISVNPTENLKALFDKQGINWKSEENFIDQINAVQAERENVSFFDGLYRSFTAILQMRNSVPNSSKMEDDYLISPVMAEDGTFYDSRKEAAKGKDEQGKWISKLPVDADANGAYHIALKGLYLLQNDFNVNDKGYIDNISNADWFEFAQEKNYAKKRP
Description: as §1

[3] = biological target: ID218 Cas12a
Description: as §1

B1: 233 crRNA MTAP ; MTAP target (ssRNA ; dsDNA)
RNA: AAAAUUUCUACUCUUGUAGAUGCCCCAAUAAUCCCCACAUGUCA
DNA 1: GCCCCAATAATCCCCACATGTCA
DNA 2: TGACATGTGGGGATTATTGGGGC
Q: With B1 as the binder, how does the activity [1] read?
A: Its activity is 14.8 % indel.

B2: 236 crRNA MTAP ; MTAP target (ssRNA ; dsDNA)
RNA: UAAAUUUCUACUGUUGUAGAUGCCCCAAUAAUCCCCACAUGUCA
DNA 1: GCCCCAATAATCCCCACATGTCA
DNA 2: TGACATGTGGGGATTATTGGGGC
Q: For B2, which activity [2] is on record?
A: The activity was 17 % indel.

B3: 218 crRNA DYRK1A ; DYRK1A target (ssRNA ; dsDNA)
RNA: UAAUUUCUACUAAGUGUAGAUGAAGCACAUCAAGGACAUUCUAA
DNA 1: GAAGCACATCAAGGACATTCTAA
DNA 2: TTAGAATGTCCTTGATGTGCTTC
Q: For B3, which activity [3] is on record?
A: The activity was 71 % indel.

B4: 233 crRNA DYRK1A ; DYRK1A target (ssRNA ; dsDNA)
RNA: AAAAUUUCUACUCUUGUAGAUGAAGCACAUCAAGGACAUUCUAA
DNA 1: GAAGCACATCAAGGACATTCTAA
DNA 2: TTAGAATGTCCTTGATGTGCTTC
Q: With B4 as the binder, how does the activity [1] read?
A: The activity was 12.2 % indel.

B5: 236 crRNA DYRK1A ; DYRK1A target (ssRNA ; dsDNA)
RNA: UAAAUUUCUACUGUUGUAGAUGAAGCACAUCAAGGACAUUCUAA
DNA 1: GAAGCACATCAAGGACATTCTAA
DNA 2: TTAGAATGTCCTTGATGTGCTTC
Q: B5 was tested. Which activity [2] did it give?
A: Its activity is 5.2 % indel.

B6: 218 crRNA MTAP ; MTAP target (ssRNA ; dsDNA)
RNA: UAAUUUCUACUAAGUGUAGAUGCCCCAAUAAUCCCCACAUGUCA
DNA 1: GCCCCAATAATCCCCACATGTCA
DNA 2: TGACATGTGGGGATTATTGGGGC
Q: With B6 as the binder, how does the activity [3] read?
A: The activity was 90.4 % indel.

— patent US20260234610, “NOVEL CAS12A PROTEIN, VARIANT OF NOVEL CAS12A PROTEIN, AND USE THEREOF FOR EUKARYOTIC GENOME EDITING” (NSAGE CORP., published 2026)
